This is an account of results in paper doi:10.1101/429076 (bioRxiv, 2018).

T1: FANCL URD-RING fragment (FANCL^UR, residues 109-375) (human, UniProt Q9NW38 109-375)
T1 sequence (looked up): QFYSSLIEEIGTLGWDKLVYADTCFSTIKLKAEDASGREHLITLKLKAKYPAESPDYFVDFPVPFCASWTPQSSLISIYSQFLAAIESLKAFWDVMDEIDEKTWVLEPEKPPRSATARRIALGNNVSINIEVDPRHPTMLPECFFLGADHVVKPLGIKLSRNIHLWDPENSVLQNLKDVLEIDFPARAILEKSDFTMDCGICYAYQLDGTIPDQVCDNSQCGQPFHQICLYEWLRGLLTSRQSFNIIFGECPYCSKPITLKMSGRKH

B1: Ube2T wildtype (enzyme, human, UniProt Q9NPD8 1-197, looked up)
chain: MQRASRLKRELHMLATEPPPGITCWQDKDQMDDLRAQILGGANTPYEKGVFKLEVIIPERYPFEPPQIRFLTPIYHPNIDSAGRICLDVLKLPPKGAWRPSLNIATVLTSIQLLMSEPNPDDPLMADISSEFKYNKPAFLKNARQWTEKHARQKQKADEEEMLDNLPEAGDSRVHNSTQKRKASQLVGIEKKFHPDV
B2: Ube2T Glu54Arg (Ube2Tv1 variant with a permissive gate, E54R) (enzyme, human, UniProt Q9NPD8 1-197, looked up)
chain: B1 chain with E54R
B3: Ube2T backside β1 double mutant (T23R+W25Q or TW/RQ) (enzyme, human, UniProt Q9NPD8 1-197, looked up)
chain: B1 chain with T23R, W25Q
B4: FANCL RING domain (FANCL^R, residues 289-375) (domain or fragment, human, UniProt Q9NW38 289-375, looked up)
chain: EIDFPARAILEKSDFTMDCGICYAYQLDGTIPDQVCDNSQCGQPFHQICLYEWLRGLLTSRQSFNIIFGECPYCSKPITLKMSGRKH
B5: Ube2T loop2-loop7 hybrid mutant (D32A, D33A, L92A or DDL/AAA) (enzyme, human, UniProt Q9NPD8 1-197, looked up)
chain: B1 chain with D32A, D33A, L92A

Residue numbers refer to the chain shown, from its start. In names and notes the source's numbering stands.

Experiment in all cases: ITC
The target of test [1] is T1, FANCL URD-RING fragment (FANCL^UR, …).
The test “Ube2T wildtype” concerns the target B1.
The target of test [2] is B3.

For orientation: Kd means the concentration at which binding is half-saturated. Take B1: in test [1], the Kd was ~119 nM and the dH amounted to 6.46 kcal/mol.
On to B2, for which the binding result in test [1] was “binds”.
B3 registered a Kd in test [1] of 200 nM.
For B4, the Kd in the test with Ube2T wildtype is ~250 nM. Further, in test [2], the binding result is recorded as “binds”.
Regarding B5, in test [1], the Kd is ~119 nM and the dH is -1.65 kcal/mol.
